Assay: two-colour ID-FRAP, CHO-K1 large ER inclusions
Conditions: glycan lost; control: YFP-Z coexpressed with HaloTag-CRT

Z-α1-antitrypsin: YFP-ZN46A,N83A,N247A (GlycMut)
other: calreticulin-driven immobilisation in ER inclusions, other: % cells with immobile YFP-Z: abolishes
